Source: the supplement of paper PMC9170038

Test system: MS2 coat protein
Experiment: apparent KD of MS2 coat protein; designed switch direction (-1 OFF switch, 1 ON switch): -1; higher = weaker reporter binding
Method in brief: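 Apparent KD, taken as the median over clusters for each design, was obtained by curve-fitting normalised cluster fluorescence. Designed RNA switches had been transcribed on Illumina chips by stalled E. coli RNA polymerase and titrated with SNAP-549-labelled MS2 coat protein, doubling from 0.7 or 1.5 nM to 3 µM.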

[1] = Eterna round: R95, input ligand: FMN 200 uM
[2] = Eterna round: R95, input ligand: microRNA oligo, concentration not stated
[3] = Eterna round: R95, input ligand: none
[4] = input ligand: microRNA oligo, concentration not stated

Row | Sequence | apparent KD of MS2 coat protein [1] | apparent KD of MS2 coat protein [2] | apparent KD of MS2 coat protein [3] | apparent KD of MS2 coat protein (input ligand: FMN 200 uM) | apparent KD of MS2 coat protein [4] | apparent KD of MS2 coat protein (input ligand: none)
1 | CAGUACUGAGGAUAUACAUGAGGAUCACCCAUGUGUUCCAGCGAGGAAACUAGCAAAAGUAGAAGGCAGUACUG [salish99_ex3_r3_077] (puzzle: Exclusion 3) | 0.199 µM | 0.0184 µM | 0.0175 µM |  |  | 
2 | GUCCUCAUGACAUGAGGAUCACCCAUGUAUUAUUUGUUAACUGAGGAUAUACUCUUAUUUUUUAUGUAGAAGGCAGAUUUGUUC [JR_ExcNG3_Sub021] (Eterna round: R96, puzzle: Exclusion NG 3) |  |  |  | 0.0431 µM | 0.0277 µM | 0.0312 µM
3 | CGAUGAGGUGUGAGGAUAUCGUGUUCGAAAGAACGUGAGAAGGCACAUGAGGAUCACCCAUGUUAACCUUGUCG [Omei Ex4B A13] (Eterna round: R97, puzzle: Brourd's mod of Exclusion 4) |  |  |  | 0.0115 µM |  | 0.0132 µM
4 | GCACGGAUGGUAGGAUAUCUGUGCGAUUAGCUCAGAGAAGGACCACAUGAGGAUCACCCAUGUACCUCAAUUAGCCUUCCGUGC [Eli exng1 - 019] (Eterna round: R96, puzzle: Exclusion NG 1) |  |  |  | 0.0148 µM | 0.0113 µM | 0.0152 µM
5 | UAUUAGCAAGUAAGGUCCCACAUGAGGAUCACCCAUGUGCUCGUCUUAUAAGGUACUGUGACGAAAGUCACGGUACC [Sensor 3, v1 - 95] (puzzle: Sensor v3, turn-off variant 1) | 0.0184 µM | 0.585 µM | 0.0181 µM |  |  | 
6 | GUCAUGUCAGGAUAUGCUUAUGAUGGGUGCUCAGACAUGAUGCAGAAGGGACAUGAGGAUCACCCAUGUACUGA [EX4 #15] (Eterna round: R97, puzzle: Exclusion 4) |  |  |  | 0.0848 µM |  | 0.0683 µM
7 | UCAUACGGUGAGGAUAUCUCCACUAAAGUGUGAAGAGAAGGCGCUACAUGAGGAUCACCCAUGUCUAUGGGCAG [Ex-6 Malc#15] (puzzle: Exclusion 6) | 0.0374 µM | 0.075 µM | 0.109 µM |  |  | 
8 | CGGCUGUGAGGAUAUGCCAGGCCGGGCACUCCGCCGCCAGCGCAGAAGGCACAUGAGGAUCACCCAUGUCAAAG [Eternabot (L2) Solution 82] (Eterna round: R97, puzzle: Exclusion 4) |  |  |  | 0.0275 µM |  | 0.0239 µM
9 | CCAUGGGAGCGAGGAUAUAGACCAUGGGAAGAGCUAGAAGGCGCUGACAUGAGGAUCACCCAUGUGUUCAUGAGGAGGUGGACA (Eterna round: R96, puzzle: Exclusion NG 1) |  |  |  | 0.215 µM | 0.0887 µM | 0.113 µM
10 | AAGGAUAGAGGAUAUGCAUAGAUACAGAUUCAUGUAGAACUACAUGAGGAUCACCCAUGUAGAAGGCUAUCCUA [Fiskers Ex 2 - 5] (puzzle: Exclusion 2) |  | 0.0173 µM |  |  |  | 
11 | GCAGUUCGAGUUAGGAUAUGAUUAAAAUUCGGAUAUCAGAAGGAACUUGAGGAUCACCCAAGUAUAGAUGUUGC [JR_BMEx4_Sub059] (Eterna round: R97, puzzle: Brourd's mod of Exclusion 4) |  |  |  | 0.0421 µM |  | 0.0171 µM
12 | UUUUAACAUGAGGAUCACCCAUGUGAGGAUAUCGAAAUUUAUAUUUAUAUUAAUUAUUCGAGAAGGCACAUUUU [JMF 85] (puzzle: Exclusion 1) |  | 0.131 µM |  |  |  | 
13 | GCGCGAAGGUAGGAUAUCCGGCGAUCUUCCGUCGGAGAAGGACCCACAUGAGGAUCACCCAUGUGGUGAUCCUG [eternacac ex6r4 sub13] (Eterna round: R97, puzzle: Exclusion 6) |  |  |  | 0.012 µM |  | 0.0239 µM
14 | UCACGGGACUGAGGAUAUACAUGAACCAUGUUUGUAGAAGGCAGAAGGUUUGAUCAUACACUAAACAUGAGGAUCACCCAUGUU [JR_ExcNG1_Sub027] (Eterna round: R96, puzzle: Exclusion NG 1) |  |  |  | 0.0211 µM | 0.0151 µM | 0.0251 µM
15 | AAUACGUGAGGAUAUAGAUGAAGGAACUUGAGGAUCACCCAAGUGGCGUCUAGUUCCUGGCUAGAAGGCACAAAUA [Biedbe] (Eterna round: R97, puzzle: Exclusion 5) |  |  |  | 0.263 µM |  | 0.326 µM
16 | CUUUUGUGAGGAUAUCAGUAGUAAAAAAUUAAAAUUACUACUGAGAAGGCACAUGAGGAUCACCCAUGUUCCUC [salish99_ex4_r3_021] (puzzle: Exclusion 4) |  | 0.0377 µM |  |  |  | 

Row | Sequence | apparent KD of MS2 coat protein [1] | apparent KD of MS2 coat protein [2] | apparent KD of MS2 coat protein [3] | apparent KD of MS2 coat protein (input ligand: FMN 200 uM) | apparent KD of MS2 coat protein [4] | apparent KD of MS2 coat protein (input ligand: none)
17 | GUGUACAGAGGAUAUGCACGAGUAGUUACGAAAGUAACUGCACAUGAGGAUCACCCAUGUAGAAGGCUGUACAC [Dot plot directed v4] (puzzle: Exclusion 2) |  | 0.0154 µM |  |  |  | 
18 | CCCUUUCAGGCAGGAUAUGUUCAUUUGUGAAUGGUGCCUACCUCACAUGAGGAUCACCCAUGUGGACAGAAGGGCCGGUGAAAA [Eternabot solution 26] (Eterna round: R96, puzzle: Exclusion NG 2) |  |  |  | 0.12 µM | 0.0255 µM | 0.0257 µM
19 | AGAAGUAGAAACCGAUCCUACAUGAGGAUCACCCAUGUAGCAAGACGUGCACGCGAAGCUCGUCAGACUACCAGAAG [salish99_TOv1_r3_001] (puzzle: Sensor v3, turn-off variant 1) | 0.379 µM | 0.821 µM | 0.685 µM |  |  | 
20 | UAAUAUCUGUAGGAUAUCAGUGGAGAACACGUAUGAGAAGGGCAGACAUGAGGAUCACCCAUGUAUAGGGUCCG [BotMod 6 - Jieux - Exclusion 6] (Eterna round: R97, puzzle: Exclusion 6) |  |  |  | 0.0591 µM |  | 0.0202 µM
21 | AGUAGGAGAGGAUAUACAUGAAGUCGAAAGACUUCGACUCAACAUGAGGAUCACCCAUGUAGAAGGCUCCUACA [Omei Ex2 BD A7] (Eterna round: R97, puzzle: Exclusion 2) |  |  |  | 0.126 µM |  | 0.0473 µM
22 | UCGGCGCGAGGAUAUGCGGCUGGUGCUUCGGGCUCUGGCGUACAUGAGGAUCACCCAUGUAGAAGGCGCGCCGC [Apr-15 SS2-42] (puzzle: Exclusion 2) |  | 0.0105 µM |  |  |  | 
23 | AAUAACAGAGGAUAUACUGUUUUAUGUGUUUAUUGUUUUGAACAUGAGGAUCACCCAUGUAGAAGGCUGAGUAA [JMF 39] (puzzle: Exclusion 2) |  | 0.0245 µM |  |  |  | 
24 | AACCGGCGGACCGAAGCUUUUUGCUUGUUUUAUACUACAACAUGAGGAUCACCCAUGUGGUGGUGGUCCGUUGUAGA [Bitein] (puzzle: Sensor v3, turn-off variant 2) | 0.0479 µM | 0.0161 µM | 0.0529 µM |  |  | 
25 | CAGUACUGAGGAUAUACAUGAGGAUCACCCAUGUGUCUUCUCCUAGGAAACUAGGUAUGUAGAAGGCAGUACUG [Omei Ex3 Mod of Eli 4.27 v1] (Eterna round: R97, puzzle: Exclusion 3) |  |  |  | 1.37 µM |  | 0.04 µM
26 | ACAUGAGGAUCACCCAUGUCUGGCUGGUCUGCUCCGGUUGUUGAGGAUAUAGUUCGGUGUUCGCGCUAGAAGGUGAGGGCUGGA [Aenatbe mod 39] (Eterna round: R96, puzzle: Exclusion NG 3) |  |  |  | 0.26 µM | 0.139 µM | 0.176 µM
27 | GAGCUAUGAGGAUAUGCAUAGAUACGGAUUCGUGUAGUACUACAUGAGGAUCACCCAUGUAGAAGGCGUGGCAG [Mat - Exclusion 2 - Mod of JL - D76] (puzzle: Exclusion 2) |  | 0.0139 µM |  |  |  | 
28 | UCAUCCGUAGGAUAUAAGAAACACAACAUGAGGAUCACCCAUGUGACCGUCAGUUAUUGCUUAGAAGGACGCGUAC [Eternabot (L1) Solution 70] (Eterna round: R97, puzzle: Exclusion 5) |  |  |  | 0.131 µM |  | 0.0912 µM
29 | AAAAGAUAAGGAUAUUGAAGGUUCGACAUGAGGAUCACCCAUGUUAUGUUGGAAAAGGGACAAGAAGGUAUGAAAU [salish99_ex5_r4_202] (Eterna round: R97, puzzle: Exclusion 5) |  |  |  | 0.0286 µM |  | 0.0291 µM
30 | AUACUUGCGAAGGAUAUGUAUCAAAGGAACGAAACAGAAGGUUGAACAUGAGGAUCACCCAUGUGUUCCUCGGA [Eternabot (Original) Solution 40] (Eterna round: R97, puzzle: Exclusion 6) |  |  |  | 0.272 µM |  | 0.235 µM
31 | UAAAGAUAAGGAUAUUGAAGGUUCGACAUGAGGAUCACCCAUGUUAUGUUGGAAAAGGGACAAGAAGGUAUGAAAU [salish99_ex5_r4_207] (Eterna round: R97, puzzle: Exclusion 5) |  |  |  | 0.0359 µM |  | 0.037 µM
32 | CCGCAACAUGAGGAUCACCCAUGUCAGGAUAUCGUACGUUCGUCGAUAGACGAUCGUACGAGAAGGGUGUGCGG [Mat - Exclusion 1 - Eli Mod - D35] (Eterna round: R97, puzzle: Exclusion 1) |  |  |  | 0.0815 µM |  | 0.103 µM
